Results published in patent publication US20250352661A1 (MYTHIC THERAPEUTICS, published 2025).
Where a chain is given by its changes, count along the chain named. Numbers in names are those of the source.

T1: Human LRRC15 Protein, His Tag (Acro Biosystems) (human, UniProt Q8TF66 22-538, limits assumed)
T1 sequence (looked up): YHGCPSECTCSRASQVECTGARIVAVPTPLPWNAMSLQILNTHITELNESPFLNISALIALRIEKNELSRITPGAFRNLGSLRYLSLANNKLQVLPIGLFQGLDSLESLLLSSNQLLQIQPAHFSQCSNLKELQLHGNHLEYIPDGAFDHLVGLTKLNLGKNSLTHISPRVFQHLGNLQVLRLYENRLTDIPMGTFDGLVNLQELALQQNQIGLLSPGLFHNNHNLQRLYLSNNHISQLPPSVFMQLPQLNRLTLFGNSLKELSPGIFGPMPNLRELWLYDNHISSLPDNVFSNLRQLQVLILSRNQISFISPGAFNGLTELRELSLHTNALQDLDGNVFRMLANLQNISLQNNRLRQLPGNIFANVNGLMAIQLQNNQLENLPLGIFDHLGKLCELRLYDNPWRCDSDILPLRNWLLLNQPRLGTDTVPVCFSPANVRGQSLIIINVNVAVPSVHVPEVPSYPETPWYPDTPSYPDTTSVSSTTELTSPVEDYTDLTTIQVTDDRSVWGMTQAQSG

T2: Human LRRC15 Protein, His Tag (Acro Biosystems) (human, UniProt Q8TF66 22-538, limits assumed)
T2 construct: not shown: His tag
T2 sequence (looked up): T1 sequence (looked up)

B1: MYT5712 (antibody, V domains shown)
VH: QEQLEESGGDLVKPGASLTLTCTASGLDFRRTNYICWVRQAPGKGLEWIGCIYIADVVHYYASWAKGRFTFSKTSSTTVTLQMTSLTAADTATYFCARGADGGFVYGMDLWGPGTLVTVSS
VL: DVVMTQTPASVSEPVGGTVTIKCQASQSIGNYLSWYQQKPGQRPKRLIYSASTLPSGVPSRFKGAGSGTEFTLTISDLESADAATYYCQNNYWLAGYGHPFGGGTEVVVK
notes: chimeric antibody (rabbit variable domains, human constant regions); also called 15G7; chimeric 15G7 RabMAb
B2: MYT6103 (antibody, V domains shown)
VH: B1 VH with S63H
VL: B1 VL
notes: chimeric rabbit 15G7 variant (rabbit variable domains, human constant regions); also called 15G7 VH S63H
B3: MYT6099 (antibody, V domains shown)
VH: B1 VH with H59A
VL: B1 VL
notes: chimeric rabbit 15G7 variant (rabbit variable domains, human constant regions); also called 15G7 VH H59A
B4: MYT6094 (antibody, V domains shown)
VH: B1 VH with I54H
VL: B1 VL
notes: chimeric rabbit 15G7 variant (rabbit variable domains, human constant regions); also called 15G7 VH I54H
B5: MYT6105 (antibody, V domains shown)
VH: B1 VH with A65H
VL: B1 VL
notes: chimeric rabbit 15G7 variant (rabbit variable domains, human constant regions); also called 15G7 VH A65H
B6: MYT6101 (antibody, V domains shown)
VH: B1 VH with Y61H
VL: B1 VL
notes: chimeric rabbit 15G7 variant (rabbit variable domains, human constant regions); also called 15G7 VH Y61H
B7: MYT6088 (antibody, V domains shown)
VH: B1 VH with Y34H
VL: B1 VL
notes: chimeric rabbit 15G7 variant (rabbit variable domains, human constant regions); also called 15G7 VH Y34H
B8: MYT6100 (antibody, V domains shown)
VH: B1 VH with Y60H
VL: B1 VL
notes: chimeric rabbit 15G7 variant (rabbit variable domains, human constant regions); also called 15G7 VH Y60H
B9: MYT6089 (antibody, V domains shown)
VH: B1 VH with I35H
VL: B1 VL
notes: chimeric rabbit 15G7 variant (rabbit variable domains, human constant regions); also called 15G7 VH I35H
B10: MYT6092 (antibody, V domains shown)
VH: B1 VH with I52H
VL: B1 VL
notes: chimeric rabbit 15G7 variant (rabbit variable domains, human constant regions); also called 15G7 VH I52H
B11: MYT6095 (antibody, V domains shown)
VH: B1 VH with A55H
VL: B1 VL
notes: chimeric rabbit 15G7 variant (rabbit variable domains, human constant regions); also called 15G7 VH A55H
B12: MYT6097 (antibody, V domains shown)
VH: B1 VH with V57H
VL: B1 VL
notes: chimeric rabbit 15G7 variant (rabbit variable domains, human constant regions); also called 15G7 VH V57H
B13: MYT6110 (antibody, V domains shown)
VH: B1 VH with G99H
VL: B1 VL
notes: chimeric rabbit 15G7 variant (rabbit variable domains, human constant regions); also called 15G7 VH G99H
B14: MYT6086 (antibody, V domains shown)
VH: B1 VH with T32H
VL: B1 VL
notes: chimeric rabbit 15G7 variant (rabbit variable domains, human constant regions); also called 15G7 VH T32H
B15: MYT6107 (antibody, V domains shown)
VH: B1 VH with G67H
VL: B1 VL
notes: chimeric rabbit 15G7 variant (rabbit variable domains, human constant regions); also called 15G7 VH G67H
B16: MYT6108 (antibody, V domains shown)
VH: B1 VH with A97H
VL: B1 VL
notes: chimeric rabbit 15G7 variant (rabbit variable domains, human constant regions); also called 15G7 VH A97H
B17: MYT6087 (antibody, V domains shown)
VH: B1 VH with N33H
VL: B1 VL
notes: chimeric rabbit 15G7 variant (rabbit variable domains, human constant regions); also called 15G7 VH N33H
B18: MYT6096 (antibody, V domains shown)
VH: B1 VH with D56H
VL: B1 VL
notes: chimeric rabbit 15G7 variant (rabbit variable domains, human constant regions); also called 15G7 VH D56H
B19: MYT6085 (antibody, V domains shown)
VH: B1 VH with R31H
VL: B1 VL
notes: chimeric rabbit 15G7 variant (rabbit variable domains, human constant regions); also called 15G7 VH R31H
B20: MYT6098 (antibody, V domains shown)
VH: B1 VH with V58H
VL: B1 VL
notes: chimeric rabbit 15G7 variant (rabbit variable domains, human constant regions); also called 15G7 VH V58H
B21: MYT6109 (antibody, V domains shown)
VH: B1 VH with R98H
VL: B1 VL
notes: chimeric rabbit 15G7 variant (rabbit variable domains, human constant regions); also called 15G7 VH R98H
B22: MYT6084 (antibody, V domains shown)
VH: B1 VH with R30H
VL: B1 VL
notes: chimeric rabbit 15G7 variant (rabbit variable domains, human constant regions); also called 15G7 VH R30H
B23: MYT6093 (antibody, V domains shown)
VH: B1 VH with Y53H
VL: B1 VL
notes: chimeric rabbit 15G7 variant (rabbit variable domains, human constant regions); also called 15G7 VH Y53H
B24: MYT6106 (antibody, V domains shown)
VH: B1 VH with K66H
VL: B1 VL
notes: chimeric rabbit 15G7 variant (rabbit variable domains, human constant regions); also called 15G7 VH K66H
B25: MYT9684 (antibody, V domains shown)
VH: EVQLVESGGGLVQPGGSLRLSCTASEFSFSSSHWICWVRQAPGKGLEWVGCIYAGSIGSTYYASWAKGRFTISRDTSKNTVYLQMNSLRAEDTAVYYCARAPNDIYNYYFNLWGQGTLVTVSS
VL: EIVMTQSPSTLSASVGDRVIITCQASENIYNYLAWYQQKPGKAPKLLIYYASTLASGVPSRFSGSGSGAEFTLTISSLQPDDFATYYCQSGYVSKSSTFGQGTKLTVL
notes: also called hu29F1 VH G26E
B26: MYT9686 (antibody, V domains shown)
VH: B25 VH with E26G, S28E
VL: B25 VL
notes: also called hu29F1 VH S28E
B27: MYT9685 (antibody, V domains shown)
VH: B25 VH with E26G, F27E
VL: B25 VL
notes: also called hu29F1 VH F27E
B28: MYT9688 (antibody, V domains shown)
VH: B25 VH with E26G, S30E
VL: B25 VL
notes: also called hu29F1 VH S30E

Biological target: T1, Human LRRC15 Protein, His Tag (Acro …)
Experiment: BLI; dissociation pH 7.4 black, pH 5.4 grey [1/2); D00006 FIG. 1E (1/2]
Excerpt: For each individual plot, antigen binding proteins were captured on anti-human Fc biosensors and associated with LRRC15 at pH 7.4. Dissociation was at pH 7.4 (black) or pH 5.4 (grey). Major X-axis ticks=100 seconds, with left dashed vertical line=0 seconds. Major Y-axis ticks=0.5 nm and octet plots are shown MYT5712 and MYT6080-MYT6121.
Multiple LRRC15-binding monoclonal antibodies have been described in the literature and can be used as a template for engineering pH-dependent binding. We selected discovery RabMAb clone 15G7 (rabbit VH SEQ ID NO: 378, rabbit VL SEQ ID NO: 451; humanized VH SEQ ID NO: 382, humanized VL SEQ ID NO: 455) as a LRRC15-binding monoclonal antibody for pH-engineering via histidine scanning. […] To generate pH-dependent sequence variants, individual amino acid residues within the heavy chain CDRs were systematically substituted with a histidine (or alanine if H was already present in a given position; e.g., MYT6099), one at a time (rabbit, MYT6080-6121). Desirable mutations were transferred to a humanized framework (humanized, MYT 8387-8411). After allowing for four days of protein expression, cell culture supernatants were collected, quantified by SDS-PAGE analysis, and the pH dependence of the variant was evaluated using biolayer interferometry (BLI) on an Octet RED 96e instrument. Briefly, cell culture supernatants were diluted based on qualitative expression level of the variant determined by visual examination of SDS-PAGE gels, 5 μL of cell culture supernatant was diluted into 195 μL of 1×PBST, pH 7.4 for high expressors, 25 μL of cell culture supernatant was diluted into 175 μL of 1×PBST, pH 7.4 for medium expressors and 100 μL of cell culture supernatant was diluted into 100 μL of 1×PBST, pH 7.4 for low expressors for loading onto the sensor tips.

Binding result, binds:
B1
B2
B3
B4
B5
B6
B7
B8
B9
B10
B11
B12
B13
B14
B15
B16
B17
B18
B19
B20
B21
B22
B23
B24

Biological target: T2, Human LRRC15 Protein, His Tag (Acro …)
Experiment: BLI; dissociation pH 7.4 black, pH 5.4 grey [1/2); D00025 FIG. 6B (1/2]
Description: Desirable mutations were transferred to a humanized framework (humanized, MYT 8387-8411). After allowing for four days of protein expression, cell culture supernatants were collected, quantified by SDS-PAGE analysis, and the pH dependence of the variant was evaluated using biolayer interferometry (BLI) on an Octet RED 96e instrument. Briefly, cell culture supernatants were diluted based on qualitative expression level of the variant determined by visual examination of SDS-PAGE gels, 5 μL of cell culture supernatant was diluted into 195 μL of 1×PBST, pH 7.4 for high expressors, 25 μL of cell culture supernatant was diluted into 175 μL of 1×PBST, pH 7.4 for medium expressors and 100 μL of cell culture supernatant was diluted into 100 μL of 1×PBST, pH 7.4 for low expressors for loading onto the sensor tips. The resulting diluted supernatants were then captured on an anti-human Fc sensor (Forte Bio). A baseline was established using 1×PBST (50 mM Potassium Phosphate Buffer+150 mM NaCl+0.05% Tween 20) pH 7.4, and the […] was associated with 50 nM of LRRC15 (Human LRRC15 Protein, His Tag, Acro Biosystems) in 1×PBST pH 7.4 for 120 sec to generate an association curve. In the dissociation phase, the antibody-antigen complex on the sensor was exposed to 1×PBST pH 7.4 or pH 5.4, for 300 sec. Association and dissociation phase curves were examined for the starting ABPC antibody (with no substitutions) and each corresponding antibody variant at pH 5.4 and pH 7.4 to inform on two criteria: a) enhanced dissociation (i.e., higher koff values) at pH 5.4 due to histidine substitution compared to the starting ABPC, (with no substitutions), and b) reduced dissociation at pH 7.4 (i.e., lower koff values) compared to pH 5.4 in the antibody variant itself and with the starting ABPC (with no substitutions).
The methods of Examples 9-10 were applied to RabMAb clone 29F1 (rabbit VH SEQ ID NO: 572 and VL SEQ ID NO: 578; and humanized VH SEQ ID NO: 576 and VL SEQ ID NO: 582).

Binding result, binds:
B25
B26
B27
B28
